Results on five molecules are retold here after article PMC8479045, “Assembly defects of human tRNA splicing endonuclease contribute to impaired pre-tRNA processing in pontocerebellar hypoplasia” (Nature Communications, 2021).

The subject of series [1] is TSEN2 H377A (inactive);TSEN34 H255A (inactive);TSEN15;TSEN54 (Homo sapiens;Homo sapiens;Homo sapiens;Homo sapiens). The series is described as follows: fluorescence anisotropy. The note with it: FA: 50 mM HEPES-NaOH pH 7.4, 100 mM NaCl, 22 °C, 70 nM Cy5-RNA; EMSA: same buffer + 1 mM DTT, 4% glycerol, on ice, 10 nM RNA; pull-down: 50 mM HEPES-NaOH pH ….
Series [2] has the same test system. The series is described as follows: competition (fluorescence anisotropy). To be noted: competitor of 3'-Cy5 pre-tRNA-Phe; FA: 50 mM HEPES-NaOH pH 7.4, 100 mM NaCl, 22 °C, 70 nM Cy5-RNA; EMSA: same buffer + 1 mM DTT, 4% glycerol, on ice, 10 nM RNA; pull-down: 50 mM HEPES-NaOH pH …. A general note: In EMSA bound probe runs differently from free probe, usually more slowly.

For series [3], the target named is T1, heterotetrameric tRNA splicing endonuclease TSEN (TSEN2–15–34–54) (human, UniProt Q8NCE0 1-465; Q8WW01 1-171; Q9BSV6 1-310; Q7Z6J9 1-526, high degree of phosphorylation (sites not given)).
T1 construct: human TSEN2, open reading frame, UniProtKB Q8NCE0; human TSEN15, open reading frame, UniProtKB Q8WW01; human TSEN34, open reading frame, UniProtKB Q9BSV6; human TSEN54, open reading frame, UniProtKB Q7Z6J9; His tags were removed with TEV protease; also called tetrameric TSEN; TSEN2–15–34–54 heterotetramer; source: Sf21 insect cells (baculovirus), co-expressed (with CLP1), purified (Ni-NTA, …)
T1 sequence (looked up) 1: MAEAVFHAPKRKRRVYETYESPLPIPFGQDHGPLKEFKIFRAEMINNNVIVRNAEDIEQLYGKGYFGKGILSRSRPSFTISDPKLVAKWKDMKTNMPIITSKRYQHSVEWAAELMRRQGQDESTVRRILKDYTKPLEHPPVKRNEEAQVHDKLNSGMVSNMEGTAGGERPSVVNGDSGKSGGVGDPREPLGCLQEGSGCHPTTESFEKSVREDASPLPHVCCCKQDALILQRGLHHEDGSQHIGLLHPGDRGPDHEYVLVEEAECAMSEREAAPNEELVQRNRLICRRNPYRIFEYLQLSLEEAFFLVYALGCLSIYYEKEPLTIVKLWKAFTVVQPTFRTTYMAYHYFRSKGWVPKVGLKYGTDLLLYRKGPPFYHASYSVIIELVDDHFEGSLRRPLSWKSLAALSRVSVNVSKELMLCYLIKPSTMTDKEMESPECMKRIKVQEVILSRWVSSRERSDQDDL
T1 sequence (looked up) 2: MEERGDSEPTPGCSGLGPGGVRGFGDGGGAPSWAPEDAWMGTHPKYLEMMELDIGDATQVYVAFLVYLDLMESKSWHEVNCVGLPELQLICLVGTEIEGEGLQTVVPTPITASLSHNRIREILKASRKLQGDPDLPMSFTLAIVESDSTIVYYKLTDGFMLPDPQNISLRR
T1 sequence (looked up) 3: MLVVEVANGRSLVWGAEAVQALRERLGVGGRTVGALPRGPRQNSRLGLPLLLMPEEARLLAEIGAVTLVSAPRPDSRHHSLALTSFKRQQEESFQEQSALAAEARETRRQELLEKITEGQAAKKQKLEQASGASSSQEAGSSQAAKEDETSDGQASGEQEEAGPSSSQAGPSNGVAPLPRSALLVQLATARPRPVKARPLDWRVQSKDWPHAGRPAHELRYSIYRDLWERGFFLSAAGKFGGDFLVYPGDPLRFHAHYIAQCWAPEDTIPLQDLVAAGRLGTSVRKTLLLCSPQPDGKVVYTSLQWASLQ
T1 sequence (looked up) 4: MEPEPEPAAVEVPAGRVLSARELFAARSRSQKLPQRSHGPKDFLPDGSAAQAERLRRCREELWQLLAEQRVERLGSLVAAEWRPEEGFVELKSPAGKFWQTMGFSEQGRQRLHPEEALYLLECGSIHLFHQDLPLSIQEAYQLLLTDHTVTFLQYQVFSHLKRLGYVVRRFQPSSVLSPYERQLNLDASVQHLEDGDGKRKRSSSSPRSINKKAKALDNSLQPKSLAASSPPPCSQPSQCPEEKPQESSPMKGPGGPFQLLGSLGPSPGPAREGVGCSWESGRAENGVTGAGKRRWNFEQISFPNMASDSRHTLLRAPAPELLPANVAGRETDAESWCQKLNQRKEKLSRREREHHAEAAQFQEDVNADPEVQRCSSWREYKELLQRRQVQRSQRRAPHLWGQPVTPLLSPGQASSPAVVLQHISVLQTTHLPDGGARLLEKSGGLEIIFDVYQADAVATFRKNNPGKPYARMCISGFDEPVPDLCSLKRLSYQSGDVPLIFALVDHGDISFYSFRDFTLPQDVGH
The series is described as follows: native MS; purified wt TSEN (1.09 mg/ml) and wt TSEN/CLP1 (1.88 mg/ml) from insect cells, exchanged into 200 mM ammonium acetate pH 7.5; Q-ToF modified for high-mass complexes. To be noted: both partners purified.

Series [4] deals with the molecule itself. Nature of the series: SEC-MALS; 330 µg TSEN15–34 complex at 1.65 mg/ml, Superdex 200 Increase, 25 mM HEPES-NaOH pH 7.5, 250 mM NaCl; heterodimer to dimer of heterodimers at high protein concentration. In general terms: In gel filtration, larger molecules generally elute earlier.

A word on the Kd: it is the equilibrium constant for the complex coming apart. One may read the Ki as a measure of affinity in units of concentration, obtained from inhibition or displacement. As usually defined, the stoichiometry N is the number of molecules, sites or subunits per partner or assembly.

Values joined by “and” are separate entries in the source; they are usually repeats but may differ in a detail not shown here. Equal entries are not always repeated.

With S.c. mature tRNA-Phe(GAA), 3'-Cy5, in series [1], the Kd is 149 nM.

For the molecule S.c. pre-tRNA-Phe(GAA), 3'-Cy5, in series [1], the Kd was found to be 173 nM. Regarding S.c. pre-tRNA-Phe(GAA), unlabeled, the Ki in series [2] is 197 nM.

B1: RNA kinase CLP1 (enzyme, human, UniProt Q92989 1-425, looked up)
chain: MGEEANDDKKPTTKFELERETELRFEVEASQSVQLELLTGMAEIFGTELTRNKKFTFDAGAKVAVFTWHGCSVQLSGRTEVAYVSKDTPMLLYLNTHTALEQMRRQAEKEEERGPRVMVVGPTDVGKSTVCRLLLNYAVRLGRRPTYVELDVGQGSVSIPGTMGALYIERPADVEEGFSIQAPLVYHFGSTTPGTNIKLYNKITSRLADVFNQRCEVNRRASVSGCVINTCGWVKGSGYQALVHAASAFEVDVVVVLDQERLYNELKRDLPHFVRTVLLPKSGGVVERSKDFRRECRDERIREYFYGFRGCFYPHAFNVKFSDVKIYKVGAPTIPDSCLPLGMSQEDNQLKLVPVTPGRDMVHHLLSVSTAEGTEENLSETSVAGFIVVTSVDLEHQVFTVLSPAPRPLPKNFLLIMDIRFMDLK
notes: human CLP1, open reading frame, UniProtKB Q92989; source: Sf21 insect cells (baculovirus), co-expressed with the four TSEN subunits, purified (Ni-NTA, heparin, TEV, SEC); not shown: His6, N-terminal, cleaved
For the molecule B1, in series [3], the “stoichiometry N” value is 1 and 2.

B2: truncated TSEN15–34 complex (TSEN15 residues 23–170 and TSEN34 residues 208–310) (complex, human)
chain 1: GFGDGGGAPSWAPEDAWMGTHPKYLEMMELDIGDATQVYVAFLVYLDLMESKSWHEVNCVGLPELQLICLVGTEIEGEGLQTVVPTPITASLSHNRIREILKASRKLQGDPDLPMSFTLAIVESDSTIVYYKLTDGFMLPDPQNISLR
chain 2: DWPHAGRPAHELRYSIYRDLWERGFFLSAAGKFGGDFLVYPGDPLRFHAHYIAQCWAPEDTIPLQDLVAAGRLGTSVRKTLLLCSPQPDGKVVYTSLQWASLQ
notes: human TSEN15, UniProtKB Q8WW01, residues 23–170; The SEC-MALS methods speak only of 'TSEN15–34 complex'; also called minimal TSEN15–34 complex; source: Sf21 insect cells (baculovirus), co-expressed, purified (Ni-NTA, TEV, SEC); not shown: His10, N-terminal, cleaved
As for B2, the “stoichiometry N” value in series [4] is 2.
